Measurements reported in PMC12292835, “Amylin Receptor 1 Mutagenesis Revealed a Potential Role of Calcitonin Serine 29 in Receptor Interaction” (Biomedicines, 2025).

B1: amylin receptor 1 extracellular domain, wild type (hRAMP1.24–111-(GSA)3-hCTR.34–141-H6) (receptor)
chain: TTACQEANYGALLRELCLTQFQVDMEAVGETLWCDWGRTIRSYRELADCTWHMAEKLGCFWPNAEVDRFFLAVHGRYFRSCPISGRAVGSAGSAGSAIEPKPFLYVVGRKKMMDAQYKCYDRMQQLPAYQGEGPYCNRTWDGWLCWDDTPAGVLSYQFCPDYFPDFDPSEKVTKYCDEKGVWFKHPENNRTWSNYTMCNAFTPEK
modifications: N-glycosylated (sites not given)
B2: amylin receptor 1 extracellular domain with calcitonin receptor E123D (hRAMP1.24–111-(GSA)3-hCTR.34–141.E123D-H6) (receptor)
chain: TTACQEANYGALLRELCLTQFQVDMEAVGETLWCDWGRTIRSYRELADCTWHMAEKLGCFWPNAEVDRFFLAVHGRYFRSCPISGRAVGSAGSAGSAIEPKPFLYVVGRKKMMDAQYKCYDRMQQLPAYQGEGPYCNRTWDGWLCWDDTPAGVLSYQFCPDYFPDFDPSEKVTKYCDEKGVWFKHPDNNRTWSNYTMCNAFTPEK
modifications: N-glycosylated (sites not given)
B3: amylin receptor 1 extracellular domain with calcitonin receptor N124D (hRAMP1.24–111-(GSA)3-hCTR.34–141.N124D-H6) (receptor)
chain: TTACQEANYGALLRELCLTQFQVDMEAVGETLWCDWGRTIRSYRELADCTWHMAEKLGCFWPNAEVDRFFLAVHGRYFRSCPISGRAVGSAGSAGSAIEPKPFLYVVGRKKMMDAQYKCYDRMQQLPAYQGEGPYCNRTWDGWLCWDDTPAGVLSYQFCPDYFPDFDPSEKVTKYCDEKGVWFKHPEDNRTWSNYTMCNAFTPEK
modifications: N-glycosylated (sites not given)
B4: amylin receptor 1 extracellular domain with calcitonin receptor N124A (hRAMP1.24–111-(GSA)3-hCTR.34–141.N124A-H6) (receptor)
chain: TTACQEANYGALLRELCLTQFQVDMEAVGETLWCDWGRTIRSYRELADCTWHMAEKLGCFWPNAEVDRFFLAVHGRYFRSCPISGRAVGSAGSAGSAIEPKPFLYVVGRKKMMDAQYKCYDRMQQLPAYQGEGPYCNRTWDGWLCWDDTPAGVLSYQFCPDYFPDFDPSEKVTKYCDEKGVWFKHPEANRTWSNYTMCNAFTPEK
modifications: N-glycosylated (sites not given)
B5: amylin receptor 1 extracellular domain with calcitonin receptor E123A (hRAMP1.24–111-(GSA)3-hCTR.34–141.E123A-H6) (receptor)
chain: TTACQEANYGALLRELCLTQFQVDMEAVGETLWCDWGRTIRSYRELADCTWHMAEKLGCFWPNAEVDRFFLAVHGRYFRSCPISGRAVGSAGSAGSAIEPKPFLYVVGRKKMMDAQYKCYDRMQQLPAYQGEGPYCNRTWDGWLCWDDTPAGVLSYQFCPDYFPDFDPSEKVTKYCDEKGVWFKHPANNRTWSNYTMCNAFTPEK
modifications: N-glycosylated (sites not given)
B6: amylin receptor 1 extracellular domain with calcitonin receptor D97E (hRAMP1.24–111-(GSA)3-hCTR.34–141.D97E-H6) (receptor)
chain: TTACQEANYGALLRELCLTQFQVDMEAVGETLWCDWGRTIRSYRELADCTWHMAEKLGCFWPNAEVDRFFLAVHGRYFRSCPISGRAVGSAGSAGSAIEPKPFLYVVGRKKMMDAQYKCYDRMQQLPAYQGEGPYCNRTWDGWLCWDDTPAGVLSYQFCPEYFPDFDPSEKVTKYCDEKGVWFKHPENNRTWSNYTMCNAFTPEK
modifications: N-glycosylated (sites not given)
B7: amylin receptor 1 extracellular domain with calcitonin receptor D97A (hRAMP1.24–111-(GSA)3-hCTR.34–141.D97A-H6) (receptor)
chain: TTACQEANYGALLRELCLTQFQVDMEAVGETLWCDWGRTIRSYRELADCTWHMAEKLGCFWPNAEVDRFFLAVHGRYFRSCPISGRAVGSAGSAGSAIEPKPFLYVVGRKKMMDAQYKCYDRMQQLPAYQGEGPYCNRTWDGWLCWDDTPAGVLSYQFCPAYFPDFDPSEKVTKYCDEKGVWFKHPENNRTWSNYTMCNAFTPEK
modifications: N-glycosylated (sites not given)

Tests used:
Assay in all cases: fluorescence polarisation; saturation binding format; 10 nM FITC-labeled peptide probe, purified receptor ECD at rising concentrations; 1 h at room temperature; anisotropy; mean pKD of at least three independent experiments
Conditions in all cases: both partners purified
[1] = target: T1, FITC-labeled salmon calcitonin (sCT) fragment(22–32) (salmon, fluorescein isothiocyanate (FITC) label, position not stated)
T1 construct: salmon calcitonin, residues 22-32 (11 amino acids); numbers count on: the mature 32-residue hormone; probably FITC at the N-terminus and a C-terminal amide, neither stated for this peptide; also called FITC-sCT(22–32); sCT(22–32); source: synthetic peptide (custom-synthesized, Genscript, HPLC-purified)

[2] = target: T2, FITC-labeled AC413(6–25) with Y25P mutation (fluorescein isothiocyanate (FITC) on the N-terminus)
T2 construct: AC413, an antagonist amylin analog, residues 6-25 (20 amino acids) with Y25P; also called FITC-AC413(6–25) Y25P; AC413(6–25) Y25P; source: synthetic peptide (custom-synthesized, Genscript, HPLC-purified)

[3] = target: T1, FITC-labeled salmon calcitonin (sCT) …; remark: listed apart in the source

Binder | Kd [1] [nM] | pKD [1] | Kd [2] [nM] | pKD [2] | fold decrease of affinity against the wild type [3] [fold]
B1 | 81 | 7.09 | 57 | 7.24 | 
B2 | 53 | 7.28 | 136 | 6.87 | 
B3 | 52 | 7.29 | 822 | 6.09 | 
B4 |  |  | 467 | 6.33 | > 10
B5 | 365 | 6.44 | 129 | 6.89 | 
B6 | 161 | 6.79 | 81 | 7.09 | 
B7 | 548 | 6.26 | 62 | 7.21 | 
